B1: BBSome complex member BBS5 (Homo sapiens), Q8N3I7 (parent)
chain: MSVLDALWEDRDVRFDLSAQQMKTRPGEVLIDCLDSIEDTKGNNGDRGRLLVTNLRILWHSLALSRVNVSVGYNCILNITTRTANSKLRGQTEALYILTKCNSTRFEFIFTNLVPGSPRLFTSVMAVHRAYETSKMYRDFKLRSALIQNKQLRLLPQEHVYDKINGVWNLSSDQGNLGTFFITNVRIVWHANMNDSFNVSIPYLQIRSIKIRDSKFGLALVIESSQQSGGYVLGFKIDPVEKLQESVKEINSLHKVYSASPIFGVDYEMEEKPQPLEALTVEQIQDDVEIDSDGHTDAFVAYFADGNKQQDREPVFSEELGLAIEKLKDGFTLQGLWEVMS
partner: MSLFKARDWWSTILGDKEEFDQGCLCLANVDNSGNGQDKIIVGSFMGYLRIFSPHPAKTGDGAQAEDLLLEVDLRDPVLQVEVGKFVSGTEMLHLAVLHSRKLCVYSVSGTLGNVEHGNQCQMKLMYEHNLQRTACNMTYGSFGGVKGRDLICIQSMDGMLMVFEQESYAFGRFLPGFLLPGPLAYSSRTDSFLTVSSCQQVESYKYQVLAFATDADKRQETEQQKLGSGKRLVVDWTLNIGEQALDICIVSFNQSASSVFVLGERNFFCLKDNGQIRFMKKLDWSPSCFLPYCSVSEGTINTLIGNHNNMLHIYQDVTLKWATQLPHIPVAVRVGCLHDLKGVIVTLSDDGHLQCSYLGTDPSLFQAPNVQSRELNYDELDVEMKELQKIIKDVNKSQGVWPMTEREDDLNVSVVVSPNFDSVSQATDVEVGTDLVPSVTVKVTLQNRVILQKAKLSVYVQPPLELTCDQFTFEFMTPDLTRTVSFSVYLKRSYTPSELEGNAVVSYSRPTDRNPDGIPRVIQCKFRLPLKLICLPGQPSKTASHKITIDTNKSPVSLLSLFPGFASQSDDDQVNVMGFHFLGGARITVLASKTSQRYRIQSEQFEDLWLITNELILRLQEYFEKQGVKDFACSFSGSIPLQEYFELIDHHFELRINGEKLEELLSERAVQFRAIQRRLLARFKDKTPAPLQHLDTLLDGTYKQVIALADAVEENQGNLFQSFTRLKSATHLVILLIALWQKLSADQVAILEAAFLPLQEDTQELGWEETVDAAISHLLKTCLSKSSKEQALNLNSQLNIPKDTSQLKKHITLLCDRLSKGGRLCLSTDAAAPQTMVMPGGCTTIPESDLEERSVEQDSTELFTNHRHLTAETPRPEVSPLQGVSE

Variants of: B1
Conditions: with pthb1_human BBS9, Q3SYG4

Variant | effect of a mutation on the interaction
T133K | with no effect
T133I | disrupting interaction strength
T133E | with no effect
F121K | with no effect
V124A | with no effect
A130K | disrupting interaction strength
H128E | with no effect
H128A | with no effect
H128K | with no effect
P115A | with no effect
P115E | with no effect
E132K | with no effect
R119E | with no effect
R119A | with no effect
R105E | with no effect
A126E | with no effect
A126K | with no effect
V114E | with no effect
V114A | with no effect
V114K | with no effect
G116K | with no effect

Variant | effect of a mutation on the interaction
T122E | with no effect
L120A | with no effect
L120E | with no effect
L120K | with no effect
T104E | with no effect
T104A | with no effect
T104I | disrupting interaction strength
S117K | with no effect
S117A | with no effect
L113A | with no effect
I109E | with no effect
E107A | with no effect
T111E | with no effect
V127E | with no effect
S123A | with no effect
F108A | with no effect
N112A | with no effect
N112K | with no effect
N112E | with no effect
P118K | with no effect
P118E | with no effect

The next lines start with the values.

effect of a mutation on the interaction | Variant
with no effect | T133A
with no effect | F121E
with no effect | F121A
with no effect | S103E
with no effect | S103K
with no effect | V124E
disrupting interaction strength | V124K
with no effect | A130E
with no effect | P115K
with no effect | E132A
with no effect | R129A
with no effect | R129E
with no effect | R129K
with no effect | R119K
with no effect | R105A
with no effect | R105K
with no effect | G116E
with no effect | G116A
with no effect | T122A
with no effect | T122K
with no effect | Y131E
with no effect | Y131K
with no effect | Y131A
with no effect | T104K
with no effect | S117E

effect of a mutation on the interaction | Variant
with no effect | L113E
with no effect | L113K
with no effect | I109K
with no effect | I109A
with no effect | E107K
with no effect | F110A
with no effect | F110E
with no effect | F110K
with no effect | T111K
with no effect | T111A
with no effect | V127K
with no effect | V127A
with no effect | S123E
disrupting interaction strength | S123F
with no effect | S123K
with no effect | F106A
with no effect | F106K
with no effect | F106E
disrupting interaction strength | F108E
with no effect | F108K
with no effect | P118A
with no effect | M125A
with no effect | M125E
with no effect | M125K
